According to US20250222112A1:

Biological target: soluble ectodomain from HSV-2 glycoprotein D (amino acids 26-331) containing a 6-histidine tag (herpes simplex virus 2 (HSV-2)) (UniProt Q69467)
Assay: ELISA, gD-6H coated at 15 µg/ml, HSV8 in 5-fold dilutions from 10 µg/ml, anti-human IgG-HRP

Chain of UniProt Q69467 (Q69467 26-331, tags left off): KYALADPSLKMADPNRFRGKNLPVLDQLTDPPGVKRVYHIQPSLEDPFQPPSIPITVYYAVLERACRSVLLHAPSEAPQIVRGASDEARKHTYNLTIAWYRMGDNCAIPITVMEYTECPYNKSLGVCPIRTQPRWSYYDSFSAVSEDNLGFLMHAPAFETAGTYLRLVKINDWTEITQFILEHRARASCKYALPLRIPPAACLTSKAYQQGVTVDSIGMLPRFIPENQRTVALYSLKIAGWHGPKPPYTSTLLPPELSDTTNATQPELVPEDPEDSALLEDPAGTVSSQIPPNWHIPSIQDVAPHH

Substance: human IgG1 monoclonal antibody HSV8
- lowest concentration with robust binding: 3 nM
